How the values were obtained:
[1] = biological target: T1, MCF substrate peptide (Ac-LPPVAASSLNRD-NH2)
T1 chain: LPPVAASSLNRD

[2] = biological target: T2, human ADAM33 catalytic domain (human, UniProt Q9BZ11 204-409); experiment: co-purification during chromatography; heterodimer not disrupted by APMA and/or detergents
T2 construct: Expressed in Drosophila S2 cells as pre/pro/cat with a C-terminal Ser-Gly-His6 tag and processed at RGRR203/EARR; also called CAT domain; protease domain
T2 sequence: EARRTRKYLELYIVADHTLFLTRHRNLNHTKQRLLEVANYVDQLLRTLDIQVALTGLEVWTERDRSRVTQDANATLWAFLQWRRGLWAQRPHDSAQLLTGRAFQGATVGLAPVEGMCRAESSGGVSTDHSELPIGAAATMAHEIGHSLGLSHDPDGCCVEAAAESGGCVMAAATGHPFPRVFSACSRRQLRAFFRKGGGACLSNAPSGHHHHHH

[3] = biological target: T3, insulin B chain peptide (HLVEALYLVC)
T3 chain: HLVEALYLVC

[4] = biological target: T4, human ADAM33 pro domain (wild type)
T4 chain: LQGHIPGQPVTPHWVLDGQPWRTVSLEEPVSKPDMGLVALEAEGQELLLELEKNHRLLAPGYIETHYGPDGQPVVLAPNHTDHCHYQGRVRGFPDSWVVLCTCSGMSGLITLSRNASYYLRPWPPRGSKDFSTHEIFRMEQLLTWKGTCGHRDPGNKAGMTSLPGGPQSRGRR

[5] = biological target: T5, KL-1 peptide (PPVAASSLRN)
T5 chain: PPVAASSLRN

[6] = biological target: T6, TRANCE peptide (VGSQHIRAEK)
T6 chain: VGSQHIRAEK

APP peptide (YEVHHQKLVF) = biological target: T7, APP peptide (YEVHHQKLVF)
T7 chain: YEVHHQKLVF

[7] = biological target: T2, human ADAM33 catalytic domain; experiment: HPLC assay of KL-1 peptide (100 µM) cleavage by ADAM33cat (80 nM), TIMP pre-incubated 1 h at RT; competitive inhibition fit
Experimental: (§1) The inhibition dissociation constants (Kᵢ) for inhibitors were determined as follows: an HPLC assay was performed in the presence or absence of inhibitors for 2 h at RT using ADAM33cat (80 nM) and KL-1 peptide substrate (100 μM). For testing tissue inhibitor of metalloproteinases (TIMPs), ADAM33 and human TIMPs were pre-incubated for 1 h at RT. Serial dilutions of TIMPs or synthetic inhibitors were tested starting at 4 μM (TIMP-2, -3, 4), 2 μM (TIMP-1, IK682), 20 μM (Marimastat), or 200 μM (Immunex compound 1: N-{DL-[2-(hydroxyamino-carbonyl)methyl]4-methylpentanoyl}-L-3-(tertbutyl)glycyl-L-alanine,2-aminoethylamide). Initial velocities were calculated by dividing cleaved product over reaction time. The initial velocities were plotted as a function of inhibitor concentration. For tight binding inhibitors (IK682, TIMP-3), the apparent inhibitor dissociation constants (Kᵢ app values) were calculated by fitting the curve to the following modified Morrison's equation: […]
(§2) The cleavage of the KL-1 peptide by ADAM33 was used to evaluate the effect of different classes of protease inhibitors. Inhibition constants of several hydroxamate compounds, known to inhibit either ADAM17 [IK682, and the Immunex compound 1] or MMPs [Marimastat], were determined. […] Human TIMP-1, -2, -3 and -4, endogenous inhibitors of MMPs and ADAMs, were tested for inhibition of ADAM33 activity.

[8] = biological target: T2, human ADAM33 catalytic domain; experiment: HPLC assay of KL-1 peptide (100 µM) cleavage by ADAM33cat (80 nM), TIMP pre-incubated 1 h at RT; Morrison tight-binding fit (Ki app)
Experimental: as §1, §2

B1: single chain zymogen form of ADAM33 (R203T/R207S) (protein)
chain: LQGHIPGQPVTPHWVLDGQPWRTVSLEEPVSKPDMGLVALEAEGQELLLELEKNHRLLAPGYIETHYGPDGQPVVLAPNHTDHCHYQGRVRGFPDSWVVLCTCSGMSGLITLSRNASYYLRPWPPRGSKDFSTHEIFRMEQLLTWKGTCGHRDPGNKAGMTSLPGGPQSRGRTEARSTRKYLELYIVADHTLFLTRHRNLNHTKQRLLEVANYVDQLLRTLDIQVALTGLEVWTERDRSRVTQDANATLWAFLQWRRGLWAQRPHDSAQLLTGRAFQGATVGLAPVEGMCRAESSGGVSTDHSELPIGAAATMAHEIGHSLGLSHDPDGCCVEAAAESGGCVMAAATGHPFPRVFSACSRRQLRAFFRKGGGACLSNAP
- catalytic efficiency on the MCF peptide [1]: showed no significant difference to that of the CAT domain

B2: human ADAM33 pro domain C131A (other)
chain: LQGHIPGQPVTPHWVLDGQPWRTVSLEEPVSKPDMGLVALEAEGQELLLELEKNHRLLAPGYIETHYGPDGQPVVLAPNHTDHCHYQGRVRGFPDSWVVLATCSGMSGLITLSRNASYYLRPWPPRGSKDFSTHEIFRMEQLLTWKGTCGHRDPGNKAGMTSLPGGPQSRGRR
notes: The whole pro/cat entry is named; The protein was processed at the pro-CAT junction, so only the part before EARR is the pro domain
- percent of protease domain associated with the pro domain [2]: > 80%

B3: human ADAM33 pro domain C131A/C179A (other)
chain: LQGHIPGQPVTPHWVLDGQPWRTVSLEEPVSKPDMGLVALEAEGQELLLELEKNHRLLAPGYIETHYGPDGQPVVLAPNHTDHCHYQGRVRGFPDSWVVLATCSGMSGLITLSRNASYYLRPWPPRGSKDFSTHEIFRMEQLLTWKGTAGHRDPGNKAGMTSLPGGPQSRGRR
notes: as for B2
- percent of protease domain associated with the pro domain [2]: > 80%

B4: human ADAM33 pro domain C179A (other)
chain: LQGHIPGQPVTPHWVLDGQPWRTVSLEEPVSKPDMGLVALEAEGQELLLELEKNHRLLAPGYIETHYGPDGQPVVLAPNHTDHCHYQGRVRGFPDSWVVLCTCSGMSGLITLSRNASYYLRPWPPRGSKDFSTHEIFRMEQLLTWKGTAGHRDPGNKAGMTSLPGGPQSRGRR
notes: as for B2
- percent of protease domain associated with the pro domain [2]: > 80%

B5: human ADAM33 catalytic domain (protein)
chain: EARRTRKYLELYIVADHTLFLTRHRNLNHTKQRLLEVANYVDQLLRTLDIQVALTGLEVWTERDRSRVTQDANATLWAFLQWRRGLWAQRPHDSAQLLTGRAFQGATVGLAPVEGMCRAESSGGVSTDHSELPIGAAATMAHEIGHSLGLSHDPDGCCVEAAAESGGCVMAAATGHPFPRVFSACSRRQLRAFFRKGGGACLSNAPSGHHHHHH
- Km [1]: suggesting a Km value greater than the highest tested concentration (500 µM)
- catalytic efficiency (kcat/Km) [1]: 2.6±0.5)×10^2 M^-1 s^-1
- peptide cleavage (HPLC) [1]: The wild-type ADAM33 cleaved the peptide between the residues corresponding to Ala-190 and Ser-191
- peptide cleavage (HPLC; site by MALDI-TOF MS) [3]: ADAM33 cleaved the ... insulin B chain peptide at A * L
- catalytic efficiency of the pro/CAT complex on the MCF peptide, tested at 50 nM-1 µM [4]: comparable to that of the CAT domain
- Km [5]: 3.0 ± 0.1 mM
- kcat [5]: 0.7 ± 0.1 s⁻¹
- kcat/Km [5]: (2.6±0.5)×10^2 M^-1 s^-1 (n=3)
- peptide cleavage (HPLC; site by MALDI-TOF MS) [5]: ADAM33 cleaved the ... KL-1 peptide at A * S
- peptide cleavage (HPLC; site by MALDI-TOF MS) [6]: ADAM33 cleaved the ... human TRANCE peptide at H * I
- Km (APP peptide (YEVHHQKLVF)): 1.0 ± 0.1 mM
- kcat (APP peptide (YEVHHQKLVF)): 0.2 ± 0.1 s⁻¹
- kcat/Km (APP peptide (YEVHHQKLVF)): (1.6±0.3)×10^2 M^-1 s^-1 (n=2)
- peptide cleavage (HPLC; site by MALDI-TOF MS) (APP peptide (YEVHHQKLVF)): ADAM33 cleaved the APP peptide at H * Q

B6: human TIMP-4 (tissue inhibitor of metalloproteinases 4) (other, UniProt Q99727 30-224, looked up)
chain: CSCAPAHPQQHICHSALVIRAKISSEKVVPASADPADTEKMLRYEIKQIKMFKGFEKVKDVQYIYTPFDSSLCGVKLEANSQKQYLLTGQVLSDGKVFIHLCNYIEPWEDLSLVQRESLNHHYHLNCGCQITTCYTVPCTISAPNECLWTDWLLERKLYGYQAQHYVCMKHVDGTCSWYRGHLPLRKEFVDIVQP
- Ki [7]: 223 nM

B7: human TIMP-3 (tissue inhibitor of metalloproteinases 3) (other, UniProt P35625 24-211, looked up)
chain: CTCSPSHPQDAFCNSDIVIRAKVVGKKLVKEGPFGTLVYTIKQMKMYRGFTKMPHVQYIHTEASESLCGLKLEVNKYQYLLTGRVYDGKMYTGLCNFVERWDQLTLSQRKGLNYRYHLGCNCKIKSCYYLPCFVTSKNECLWTDMLSNFGYPGYQSKHYACIRQKGGYCSWYRGWAPPDKSIINATDP
- Ki [8]: 64 nM
